# Source: patent US20050221287A1 (CONSEJO SUPERIOR DE INVESTIGACIONES CIENTIFICAS PHARMACIA …, published 2005)
# T1: STAT1 (human, UniProt P42224 2-750, limits assumed)
# T1 sequence (looked up): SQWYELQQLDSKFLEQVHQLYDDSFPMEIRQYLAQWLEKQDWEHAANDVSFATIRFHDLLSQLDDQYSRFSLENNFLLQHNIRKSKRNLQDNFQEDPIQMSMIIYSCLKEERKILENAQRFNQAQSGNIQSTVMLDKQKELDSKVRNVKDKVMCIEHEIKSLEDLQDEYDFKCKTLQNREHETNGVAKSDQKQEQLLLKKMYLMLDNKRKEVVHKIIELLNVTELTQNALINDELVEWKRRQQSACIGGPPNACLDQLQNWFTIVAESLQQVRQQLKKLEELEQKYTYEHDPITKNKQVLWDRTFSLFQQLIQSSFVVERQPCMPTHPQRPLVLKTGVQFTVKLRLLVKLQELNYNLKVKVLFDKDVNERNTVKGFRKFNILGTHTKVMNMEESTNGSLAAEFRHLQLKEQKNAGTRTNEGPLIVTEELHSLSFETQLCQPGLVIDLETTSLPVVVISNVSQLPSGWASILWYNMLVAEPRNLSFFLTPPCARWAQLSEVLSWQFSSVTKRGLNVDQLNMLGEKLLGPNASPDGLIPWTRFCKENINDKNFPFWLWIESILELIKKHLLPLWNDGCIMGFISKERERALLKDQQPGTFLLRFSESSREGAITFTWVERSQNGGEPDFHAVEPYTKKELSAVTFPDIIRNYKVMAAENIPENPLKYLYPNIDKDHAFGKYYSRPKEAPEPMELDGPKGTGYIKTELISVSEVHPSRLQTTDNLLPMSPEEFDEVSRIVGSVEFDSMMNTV
# T2: STAT4 (human, UniProt Q14765 1-748)
# T2 sequence (looked up): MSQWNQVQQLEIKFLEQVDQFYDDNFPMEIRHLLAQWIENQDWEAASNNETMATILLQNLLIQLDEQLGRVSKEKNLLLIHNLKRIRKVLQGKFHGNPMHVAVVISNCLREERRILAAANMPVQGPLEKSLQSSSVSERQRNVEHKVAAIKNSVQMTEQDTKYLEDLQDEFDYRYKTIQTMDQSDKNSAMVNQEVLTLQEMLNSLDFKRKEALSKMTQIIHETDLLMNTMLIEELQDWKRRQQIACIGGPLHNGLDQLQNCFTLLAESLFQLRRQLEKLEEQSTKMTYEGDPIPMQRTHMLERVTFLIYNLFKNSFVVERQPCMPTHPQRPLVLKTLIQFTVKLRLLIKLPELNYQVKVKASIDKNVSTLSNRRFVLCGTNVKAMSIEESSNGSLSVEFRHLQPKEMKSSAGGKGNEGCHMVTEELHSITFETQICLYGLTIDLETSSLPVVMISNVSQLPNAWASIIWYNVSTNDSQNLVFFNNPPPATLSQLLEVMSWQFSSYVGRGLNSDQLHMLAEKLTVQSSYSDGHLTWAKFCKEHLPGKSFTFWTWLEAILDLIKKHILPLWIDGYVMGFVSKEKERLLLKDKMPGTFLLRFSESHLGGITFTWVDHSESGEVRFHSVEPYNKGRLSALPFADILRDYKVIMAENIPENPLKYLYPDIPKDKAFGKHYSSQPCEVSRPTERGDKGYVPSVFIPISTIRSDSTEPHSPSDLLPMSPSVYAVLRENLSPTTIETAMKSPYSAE
# T3: STAT6 (human, UniProt P42226 2-847)
# T3 sequence (looked up): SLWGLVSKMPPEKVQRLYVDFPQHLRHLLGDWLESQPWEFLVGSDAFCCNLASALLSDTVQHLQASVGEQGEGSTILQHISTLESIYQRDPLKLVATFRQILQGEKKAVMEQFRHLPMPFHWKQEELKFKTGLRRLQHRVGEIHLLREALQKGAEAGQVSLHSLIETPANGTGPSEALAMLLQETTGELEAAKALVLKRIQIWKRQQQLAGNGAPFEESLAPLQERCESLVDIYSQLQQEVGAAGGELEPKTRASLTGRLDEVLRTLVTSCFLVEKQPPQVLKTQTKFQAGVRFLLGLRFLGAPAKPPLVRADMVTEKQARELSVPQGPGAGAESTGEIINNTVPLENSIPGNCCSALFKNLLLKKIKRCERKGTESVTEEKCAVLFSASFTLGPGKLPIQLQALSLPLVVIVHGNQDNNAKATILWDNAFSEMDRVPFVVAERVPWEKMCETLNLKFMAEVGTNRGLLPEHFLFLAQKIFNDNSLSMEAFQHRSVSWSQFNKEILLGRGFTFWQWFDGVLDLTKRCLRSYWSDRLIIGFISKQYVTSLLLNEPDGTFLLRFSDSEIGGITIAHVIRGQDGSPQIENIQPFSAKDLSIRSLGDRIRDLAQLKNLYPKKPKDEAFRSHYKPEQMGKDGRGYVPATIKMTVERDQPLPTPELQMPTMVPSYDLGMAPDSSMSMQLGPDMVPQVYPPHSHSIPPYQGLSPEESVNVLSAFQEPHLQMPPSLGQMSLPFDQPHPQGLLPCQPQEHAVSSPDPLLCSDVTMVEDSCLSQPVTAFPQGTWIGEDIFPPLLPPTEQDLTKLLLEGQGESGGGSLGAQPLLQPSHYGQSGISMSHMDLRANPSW
# B1: CXCR4 (receptor, human, UniProt P61073 1-352, looked up)
# chain: MEGISIYTSDNYTEEMGSGDYDSMKEPCFREENANFNKIFLPTIYSIIFLTGIVGNGLVILVMGYQKKLRSMTDKYRLHLSVADLLFVITLPFWAVDAVANWYFGNFLCKAVHVIYTVNLYSSVLILAFISLDRYLAIVHATNSQRPRKLLAEKVVYVGVWIPALLLTIPDFIFANVSEADDRYICDRFYPNDLWVVVFQFQHIMVGLILPGIVILSCYCIIISKLSHSKGHQKRKALKTTVILILAFFACWLPYYIGISIDSFILLEIIKQGCEFENTVHKWISITEALAFFHCCLNPILYAFLGAKFKTSAQHALTSVSRGSSLKILSKGKRGGHSSVSTESESSSFHSS
# notes: whole, on cells; Endogenous receptor of IM-9 cells: on the cell surface in flow cytometry, immunoprecipitated from digitonin lysates in the co-immunoprecipitations; also called CXCR4 receptor; the CXCR4
# Tests used:
# STAT1 = biological target: T1, STAT1; assay: association with CXCR4 in CXCL12-stimulated IM-9 cells
# STAT2 = STAT2 (human, UniProt P52630 1-851); assay: as above
# STAT3 = STAT3 (human, UniProt P40763 2-770, limits assumed); assay: as above
# JAK1 = biological target: T4, JAK1 (human, UniProt P23458 1-1154); assay: as above
# T4 construct: Endogenous protein of IM-9 cell lysates
# STAT4 = biological target: T2, STAT4; assay: association with CXCR4 in CXCL12-stimulated IM-9 cells (data not shown)
# STAT6 = biological target: T3, STAT6; assay: as above
# STAT3, sequence (P40763 2-770 limits assumed): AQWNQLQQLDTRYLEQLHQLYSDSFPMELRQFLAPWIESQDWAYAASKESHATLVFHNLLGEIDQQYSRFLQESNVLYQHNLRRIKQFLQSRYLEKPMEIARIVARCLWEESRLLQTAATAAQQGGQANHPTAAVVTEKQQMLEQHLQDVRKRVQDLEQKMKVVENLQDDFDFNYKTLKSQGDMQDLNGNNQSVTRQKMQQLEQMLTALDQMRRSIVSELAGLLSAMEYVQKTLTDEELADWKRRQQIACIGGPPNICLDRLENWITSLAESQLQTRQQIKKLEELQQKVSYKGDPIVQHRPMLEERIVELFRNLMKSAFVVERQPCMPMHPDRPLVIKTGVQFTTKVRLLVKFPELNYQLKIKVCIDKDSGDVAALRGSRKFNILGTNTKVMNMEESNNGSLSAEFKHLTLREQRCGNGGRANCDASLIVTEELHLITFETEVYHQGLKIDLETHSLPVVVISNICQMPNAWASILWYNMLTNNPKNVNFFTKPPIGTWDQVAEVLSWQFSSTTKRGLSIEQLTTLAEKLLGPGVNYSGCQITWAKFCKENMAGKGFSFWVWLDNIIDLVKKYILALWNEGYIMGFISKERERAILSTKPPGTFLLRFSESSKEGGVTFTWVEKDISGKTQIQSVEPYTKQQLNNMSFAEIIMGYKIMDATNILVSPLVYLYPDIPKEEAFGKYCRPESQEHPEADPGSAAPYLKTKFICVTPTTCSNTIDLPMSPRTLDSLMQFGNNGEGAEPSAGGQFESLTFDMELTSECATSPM
# T4 sequence (P23458 whole entry): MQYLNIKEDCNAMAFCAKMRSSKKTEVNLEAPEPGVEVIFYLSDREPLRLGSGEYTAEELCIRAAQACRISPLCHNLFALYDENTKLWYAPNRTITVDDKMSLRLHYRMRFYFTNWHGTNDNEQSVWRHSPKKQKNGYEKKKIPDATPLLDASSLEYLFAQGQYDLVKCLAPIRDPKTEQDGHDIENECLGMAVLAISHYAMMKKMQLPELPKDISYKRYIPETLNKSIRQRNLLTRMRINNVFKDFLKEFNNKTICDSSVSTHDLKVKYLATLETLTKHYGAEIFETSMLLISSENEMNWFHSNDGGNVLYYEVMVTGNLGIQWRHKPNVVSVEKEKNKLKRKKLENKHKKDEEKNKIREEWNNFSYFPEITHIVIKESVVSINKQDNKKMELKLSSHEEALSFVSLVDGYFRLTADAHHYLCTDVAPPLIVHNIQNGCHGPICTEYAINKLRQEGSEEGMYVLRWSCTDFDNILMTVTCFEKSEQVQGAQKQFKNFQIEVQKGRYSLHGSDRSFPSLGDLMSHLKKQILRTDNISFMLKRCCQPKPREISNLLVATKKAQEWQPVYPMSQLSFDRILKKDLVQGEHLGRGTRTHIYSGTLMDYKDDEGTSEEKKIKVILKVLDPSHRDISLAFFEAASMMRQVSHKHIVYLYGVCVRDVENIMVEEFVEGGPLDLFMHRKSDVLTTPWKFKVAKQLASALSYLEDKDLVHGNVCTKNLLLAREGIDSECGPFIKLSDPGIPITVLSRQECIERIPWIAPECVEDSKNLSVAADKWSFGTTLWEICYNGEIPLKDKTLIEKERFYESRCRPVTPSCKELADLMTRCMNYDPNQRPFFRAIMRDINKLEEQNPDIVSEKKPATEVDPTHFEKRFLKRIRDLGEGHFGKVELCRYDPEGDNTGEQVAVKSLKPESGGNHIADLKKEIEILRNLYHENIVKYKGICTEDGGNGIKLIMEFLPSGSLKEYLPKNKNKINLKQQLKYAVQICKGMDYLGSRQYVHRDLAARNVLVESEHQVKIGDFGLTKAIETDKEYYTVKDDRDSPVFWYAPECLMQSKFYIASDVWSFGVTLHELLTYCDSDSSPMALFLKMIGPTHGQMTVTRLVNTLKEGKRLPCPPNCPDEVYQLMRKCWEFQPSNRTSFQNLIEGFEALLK
# STAT2, sequence (P52630 whole entry): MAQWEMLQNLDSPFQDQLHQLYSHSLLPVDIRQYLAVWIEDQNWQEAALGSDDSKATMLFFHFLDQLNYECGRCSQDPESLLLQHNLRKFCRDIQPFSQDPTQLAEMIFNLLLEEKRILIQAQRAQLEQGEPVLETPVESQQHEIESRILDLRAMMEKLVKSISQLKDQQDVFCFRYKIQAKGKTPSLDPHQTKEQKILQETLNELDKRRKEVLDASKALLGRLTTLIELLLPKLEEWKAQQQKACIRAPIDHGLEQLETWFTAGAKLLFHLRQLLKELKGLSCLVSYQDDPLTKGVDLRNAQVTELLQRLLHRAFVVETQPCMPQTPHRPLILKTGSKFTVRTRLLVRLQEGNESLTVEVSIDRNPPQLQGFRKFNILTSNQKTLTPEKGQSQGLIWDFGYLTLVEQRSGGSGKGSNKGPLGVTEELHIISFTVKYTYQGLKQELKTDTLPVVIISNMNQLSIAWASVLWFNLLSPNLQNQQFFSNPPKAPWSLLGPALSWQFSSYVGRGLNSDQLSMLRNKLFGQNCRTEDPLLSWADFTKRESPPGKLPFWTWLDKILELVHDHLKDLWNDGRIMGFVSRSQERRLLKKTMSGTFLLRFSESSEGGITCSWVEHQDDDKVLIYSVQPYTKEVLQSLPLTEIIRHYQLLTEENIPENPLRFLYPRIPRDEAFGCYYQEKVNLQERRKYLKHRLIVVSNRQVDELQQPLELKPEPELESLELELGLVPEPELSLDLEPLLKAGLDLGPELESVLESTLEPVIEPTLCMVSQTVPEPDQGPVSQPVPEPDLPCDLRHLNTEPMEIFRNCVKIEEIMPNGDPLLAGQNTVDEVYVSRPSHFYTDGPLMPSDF
binder,measurement,setting,value
B1,binding result,STAT1,binds
same,binding result,STAT2,binds
same,binding result,STAT3,binds
same,binding result,JAK1,binds
same,binding result,STAT4,no binding
same,binding result,STAT6,no binding
